# T1: Sp_0475 (Streptococcus pneumoniae, UniProt A0A0H2UNN2)
# T1 sequence (A0A0H2UNN2 1-646): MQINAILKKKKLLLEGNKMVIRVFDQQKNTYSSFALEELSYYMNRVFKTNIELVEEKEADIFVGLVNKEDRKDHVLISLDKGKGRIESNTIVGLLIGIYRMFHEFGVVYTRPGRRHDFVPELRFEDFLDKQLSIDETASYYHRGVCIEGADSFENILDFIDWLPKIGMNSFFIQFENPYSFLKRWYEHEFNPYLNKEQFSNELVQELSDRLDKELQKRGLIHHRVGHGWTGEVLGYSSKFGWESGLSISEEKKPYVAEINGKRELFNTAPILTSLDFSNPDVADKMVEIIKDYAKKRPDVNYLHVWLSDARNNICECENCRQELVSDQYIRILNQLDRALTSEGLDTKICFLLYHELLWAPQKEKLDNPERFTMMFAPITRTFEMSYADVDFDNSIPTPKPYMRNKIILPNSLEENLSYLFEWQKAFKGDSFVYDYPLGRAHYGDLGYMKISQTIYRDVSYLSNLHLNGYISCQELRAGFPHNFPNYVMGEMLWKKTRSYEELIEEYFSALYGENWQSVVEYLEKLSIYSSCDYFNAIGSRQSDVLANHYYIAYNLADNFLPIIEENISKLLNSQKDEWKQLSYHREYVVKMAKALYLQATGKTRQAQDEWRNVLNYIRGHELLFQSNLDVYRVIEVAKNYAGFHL
# B1: Sp_0475 (Streptococcus pneumoniae TIGR4) (protein)
# chain: T1 sequence (A0A0H2UNN2 1-646)
# Key:
# [1] = system: CC(=O)N[C@H]1[C@H](Oc2ccc([N+](=O)[O-])cc2)O[C@H](COS(=O)(=O)O)[C@@H](O)[C@@H]1O; assay: Michaelis-Menten kinetics of hydrolysis by purified mutant; format: biochemical, Streptococcus pneumoniae; conditions: active site; pH 7.0
# [2] = system: CC(=O)N[C@H]1[C@H](Oc2ccc3c(C)cc(=O)oc3c2)O[C@H](COS(=O)(=O)O)[C@@H](O)[C@@H]1O; assay: as above; format: biochemical, Streptococcus pneumoniae; conditions: active site; pH 7.0
# [3] = molecular target: T1, Sp_0475; format: biochemical
# [4] = substrate: CC(=O)N[C@H]1[C@H](Oc2ccc([N+](=O)[O-])cc2)O[C@H](COS(=O)(=O)O)[C@@H](O)[C@@H]1O; assay: purified protein; conditions: active site; R633 interacts with the sulfate; pH 7.0
# [5] = substrate: CC(=O)N[C@H]1[C@H](Oc2ccc3c(C)cc(=O)oc3c2)O[C@H](COS(=O)(=O)O)[C@@H](O)[C@@H]1O; assay: purified protein; conditions: active site; pH 7.0
molecule,measurement,setting,value
Sp_0475 (Streptococcus pneumoniae TIGR4; D309A),Km,[1],4.0 ± 0.1 µM
same,Km,[2],1.5 ± 0.1 µM
same,kcat,[2],0.007 ± 0.0001 s⁻¹
same,kcat/Km,[2],4000 ± 1000 M⁻¹ s⁻¹
Sp_0475 (Streptococcus pneumoniae TIGR4; Y436F),Km,[1],57 ± 4 µM
same,kcat,[1],0.15 ± 0.002 s⁻¹
same,kcat/Km,[1],3000 ± 500 M⁻¹ s⁻¹
CC1=N[C@@H]2[C@@H](O)[C@H](O)[C@@H](CO)O[C@@H]2S1 [GlcNAc-thiazoline],Ki,[3],6.6 ± 0.2 mM
B1,Km,[4],250 ± 4 µM
same,kcat,[4],65 ± 0.3 s⁻¹
same,kcat/Km,[4],260000 ± 80000 M⁻¹ s⁻¹
same,Km,[5],264 ± 7 µM
same,kcat,[5],55 ± 0.4 s⁻¹
same,kcat/Km,[5],210000 ± 60000 M⁻¹ s⁻¹

# From publication PMC10570127 (The Journal of Biological Chemistry, 2023)
